According to PMC3746069 (FEBS letters, 2013):

B3: Outer arm dynein intermediate chain 2 with C-terminal 6xHis (IC2-6xHis) (natural protein, Chlamydomonas reinhardtii, UniProt P27766 1-567, looked up)
chain: MEIYHQYIKLRKQFGRFPKFGDEGSEMLADIRPNEDHGKEYIPRNPVTTVTQCVPEMSEHEANTNAVILVNKAMSHVEGGWPKDVDYTEAEHTIRYRKKVEKDEDYIRTVVQLGSSVEDLIKQNNAVDIYQEYFTNVTMDHTSEAPHVKTVTVFKDPNNIKRSASYVNWHPDGSVPKVVVAYSILQFQQQPAGMPLSSYIWDVNNPNTPEYEMVPTSQICCAKFNLKDNNLVGAGQYNGQLAYFDVRKGNGPVEATPIDISHRDPIYDFAWLQSKTGTECMTVSTDGNVLWWDLRKMNECVENMPLKEKNSETTVGGVCLEYDTNAGPTNFMVGTEQGQIFSCNRKAKNPVDRVKYVLSGHHGPIYGLRRNPFNSKYFLSIGDWTARVWVEDTAVKTPILTTKYHPTYLTGGTWSPSRPGVFFTIKMDGAMDVWDLYYKHNEPTLTVQVSDLALTAFAVQESGGTVAVGTSDGCTSVLQLSTGLSEASPAEKANINAMFERETTREKNLEKAIKEAKVKARKEQGRRDEVKDNVTEEQLKALEDEFFKTTDPAVGGGYGAGEGAAAE

Key:
[1] = target: T1, Outer dynein arm docking complex subunit DC2 with C-terminal 6xHis (DC2-6xHis) (Chlamydomonas reinhardtii, UniProt A8JF70 1-552); assay: pull-down
T1 sequence (looked up): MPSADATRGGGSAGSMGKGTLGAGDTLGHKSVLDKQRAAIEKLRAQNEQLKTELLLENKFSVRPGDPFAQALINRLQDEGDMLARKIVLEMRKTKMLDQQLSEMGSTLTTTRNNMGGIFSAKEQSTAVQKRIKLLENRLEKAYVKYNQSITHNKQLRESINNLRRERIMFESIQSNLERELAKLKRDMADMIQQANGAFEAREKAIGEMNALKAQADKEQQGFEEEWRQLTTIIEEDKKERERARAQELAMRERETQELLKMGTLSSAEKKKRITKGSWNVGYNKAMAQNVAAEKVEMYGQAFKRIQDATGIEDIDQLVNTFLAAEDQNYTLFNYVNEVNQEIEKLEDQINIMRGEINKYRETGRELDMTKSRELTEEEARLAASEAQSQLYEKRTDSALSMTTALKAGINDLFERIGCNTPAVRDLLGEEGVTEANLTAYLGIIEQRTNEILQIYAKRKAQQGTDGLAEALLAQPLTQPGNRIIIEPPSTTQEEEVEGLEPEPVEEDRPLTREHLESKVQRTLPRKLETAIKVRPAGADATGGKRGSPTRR

[2] = target: B3; assay: pull-down
[3] = target: T2, Outer arm dynein intermediate chain 1 with N-terminal 6xHis (His-IC1) (Chlamydomonas reinhardtii, UniProt Q39578 1-683); assay: co-IP
T2 sequence (looked up): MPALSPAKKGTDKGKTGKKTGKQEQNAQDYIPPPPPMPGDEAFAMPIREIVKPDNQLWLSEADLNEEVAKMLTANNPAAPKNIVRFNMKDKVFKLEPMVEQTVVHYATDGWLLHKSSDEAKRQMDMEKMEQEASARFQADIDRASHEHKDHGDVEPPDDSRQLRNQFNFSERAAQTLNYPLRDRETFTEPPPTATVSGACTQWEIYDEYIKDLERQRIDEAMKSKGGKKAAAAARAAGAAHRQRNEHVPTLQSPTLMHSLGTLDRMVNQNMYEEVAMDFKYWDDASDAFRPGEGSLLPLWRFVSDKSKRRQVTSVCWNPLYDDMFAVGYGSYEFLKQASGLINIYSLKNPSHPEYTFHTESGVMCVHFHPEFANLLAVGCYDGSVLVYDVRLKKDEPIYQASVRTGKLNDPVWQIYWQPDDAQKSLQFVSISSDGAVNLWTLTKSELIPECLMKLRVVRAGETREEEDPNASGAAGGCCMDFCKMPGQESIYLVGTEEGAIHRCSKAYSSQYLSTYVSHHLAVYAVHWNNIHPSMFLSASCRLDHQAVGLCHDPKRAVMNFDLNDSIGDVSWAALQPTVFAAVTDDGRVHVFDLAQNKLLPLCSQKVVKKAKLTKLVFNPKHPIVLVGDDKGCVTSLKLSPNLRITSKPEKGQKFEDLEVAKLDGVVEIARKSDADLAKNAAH

B1: Outer dynein arm docking complex subunit DC1, not tagged (natural protein)
chain: not shown
- stoichiometry N [1]: 1 DC1:DC2

B2: Outer arm dynein intermediate chain 1 (IC1), not tagged (natural protein, Chlamydomonas reinhardtii, UniProt Q39578 1-683, looked up)
chain: MPALSPAKKGTDKGKTGKKTGKQEQNAQDYIPPPPPMPGDEAFAMPIREIVKPDNQLWLSEADLNEEVAKMLTANNPAAPKNIVRFNMKDKVFKLEPMVEQTVVHYATDGWLLHKSSDEAKRQMDMEKMEQEASARFQADIDRASHEHKDHGDVEPPDDSRQLRNQFNFSERAAQTLNYPLRDRETFTEPPPTATVSGACTQWEIYDEYIKDLERQRIDEAMKSKGGKKAAAAARAAGAAHRQRNEHVPTLQSPTLMHSLGTLDRMVNQNMYEEVAMDFKYWDDASDAFRPGEGSLLPLWRFVSDKSKRRQVTSVCWNPLYDDMFAVGYGSYEFLKQASGLINIYSLKNPSHPEYTFHTESGVMCVHFHPEFANLLAVGCYDGSVLVYDVRLKKDEPIYQASVRTGKLNDPVWQIYWQPDDAQKSLQFVSISSDGAVNLWTLTKSELIPECLMKLRVVRAGETREEEDPNASGAAGGCCMDFCKMPGQESIYLVGTEEGAIHRCSKAYSSQYLSTYVSHHLAVYAVHWNNIHPSMFLSASCRLDHQAVGLCHDPKRAVMNFDLNDSIGDVSWAALQPTVFAAVTDDGRVHVFDLAQNKLLPLCSQKVVKKAKLTKLVFNPKHPIVLVGDDKGCVTSLKLSPNLRITSKPEKGQKFEDLEVAKLDGVVEIARKSDADLAKNAAH
- stoichiometry N [2]: 1 IC1:IC2

Binder: B3
- binding result [3]: binds
